Experimental data taken from patent US6602687B1, “DNA encoding human ciliary neurotrophic factor and method for producing the protein encoded thereby” (Regeneron Pharmaceuticals, Inc., priority 1989, dated 2003).

B1: IL-6: IL-6 (mouse, rec.) (protein, UniProt P08505 25-211, looked up)
Interleukin-6: FPTSQVRRGDFTEDTTPNRPVYTTSQVGGLITHVLWEIVEMRKELCNGNSDCMNNDDALAENNLKLPEIQRNDGCYQTGYNQEICLLKISSGLLEYHSYLEYMKNNLKDNKKDKARVLQRDTETLIHIFNQEVKDLHKIVLPTPISNALLTDKLESQKEWLRTKTIQFILKSLEEFLKVTLRSTRQT
B2: NT-3: neurotrophic molecule of the NGF-BDNF gene family, produced by transfected Cos-cells (protein, UniProt P20783 139-257, looked up)
Neurotrophin-3: YAEHKSHRGEYSVCDSESLWVTDKSSAIDIRGHQVTVLGEIKTGNSPVKQYFYETRCKEARPVKNGCRGIDDKHWNSQCKTSQTYVRALTSENNKLVGWRWIRIDTSCVCALSRKIGRT
B3: CNTF purified from rat sciatic nerve: native CNTF protein purified from rat sciatic nerve (protein, UniProt P20294 1-200, looked up)
Ciliary neurotrophic factor: MAFAEQTPLTLHRRDLCSRSIWLARKIRSDLTALMESYVKHQGLNKNINLDSVDGVPVASTDRWSEMTEAERLQENLQAYRTFQGMLTKLLEDQRVHFTPTEGDFHQAIHTLMLQVSAFAYQLEELMVLLEQKIPENEADGMPATVGDGGLFEKKLWGLKVLQELSQWTVRSIHDLRVISSHQMGISALESHYGAKDKQM
B4: EGF: EGF (mouse) (protein, UniProt P01132 29-1217, looked up)
Pro-epidermal growth factor: WQTGNCQPGPLERSERSGTCAGPAPFLVFSQGKSISRIDPDGTNHQQLVVDAGISADMDIHYKKERLYWVDVERQVLLRVFLNGTGLEKVCNVERKVSGLAIDWIDDEVLWVDQQNGVITVTDMTGKNSRVLLSSLKHPSNIAVDPIERLMFWSSEVTGSLHRAHLKGVDVKTLLETGGISVLTLDVLDKRLFWVQDSGEGSHAYIHSCDYEGGSVRLIRHQARHSLSSMAFFGDRIFYSVLKSKAIWIANKHTGKDTVRINLHPSFVTPGKLMVVHPRAQPRTEDAAKDPDPELLKQRGRPCRFGLCERDPKSHSSACAEGYTLSRDRKYCEDVNECATQNHGCTLGCENTPGSYHCTCPTGFVLLPDGKQCHELVSCPGNVSKCSHGCVLTSDGPRCICPAGSVLGRDGKTCTGCSSPDNGGCSQICLPLRPGSWECDCFPGYDLQSDRKSCAASGPQPLLLFANSQDIRHMHFDGTDYKVLLSRQMGMVFALDYDPVESKIYFAQTALKWIERANMDGSQRERLITEGVDTLEGLALDWIGRRIYWTDSGKSVVGGSDLSGKHHRIIIQERISRPRGIAVHPRARRLFWTDVGMSPRIESASLQGSDRVLIASSNLLEPSGITIDYLTDTLYWCDTKRSVIEMANLDGSKRRRLIQNDVGHPFSLAVFEDHLWVSDWAIPSVIRVNKRTGQNRVRLQGSMLKPSSLVVVHPLAKPGADPCLYRNGGCEHICQESLGTARCLCREGFVKAWDGKMCLPQDYPILSGENADLSKEVTSLSNSTQAEVPDDDGTESSTLVAEIMVSGMNYEDDCGPGGCGSHARCVSDGETAECQCLKGFARDGNLCSDIDECVLARSDCPSTSSRCINTEGGYVCRCSEGYEGDGISCFDIDECQRGAHNCGENAACTNTEGGYNCTCAGRPSSPGLSCPDSTAPSLLGEDGHHLDRNSYPGCPSSYDGYCLNGGVCMHIESLDSYTCNCVIGYSGDRCQTRDLRWWELRHAGYGQKHDIMVVAVCMVALVLLLVLGMWGTYYYRTRKQLSNPPKNPCDEPSGSVSSSGPNSSSGAAVASCPQPWFVVLEKHQDPKNGSLPADGTNGAVVDAGLSPSLQLGSVHLTSWRQKPHIDGMGTGQSCWIPPSSDRGPQEIEGNSHLPSYRPVGPEKLHSLQSANGSCHERAPDLPRQTEPVQ
modifications: Pro-epidermal growth factor
B5: pRPN108: hCNTF with alanine in place of cysteine at amino acid 17, encoded in plasmid pRPN108 (protein, UniProt P26441 1-200, looked up, variant C17A)
Ciliary neurotrophic factor: MAFTEHSPLTPHRRDLASRSIWLARKIRSDLTALTESYVKHQGLNKNINLDSADGMPVASTDQWSELTEAERLQENLQAYRTFHVLLARLLEDQQVHFTPTEGDFHQAIHTLLLQVAAFAYQIEELMILLEYKIPRNEADGMPINVGDGGLFEKKLWGLKVLQELSQWTVRSIHDLRFISSHQTGIPARGSHYIANNKKM
B6: IFNc: IFNc (rat, rec.) (protein, UniProt P01581 23-156, looked up)
Interferon gamma: QGTLIESLESLKNYFNSSSMDAMEGKSLLLDIWRNWQKDGNTKILESQIISFYLRLFEVLKDNQAISNNISVIESHLITNFFSNSKAKKDAFMSIAKFEVNNPQIQHKAVNELIRVIHQLSPESSLRKRKRSRC
B7: bNGF: bNGF (mouse) (protein, UniProt P01139 122-241, looked up)
Beta-nerve growth factor: SSTHPVFHMGEFSVCDSVSVWVGDKTTATDIKGKEVTVLAEVNINNSVFRQYFFETKCRASNPVESGCRGIDSKHWNSYCTTTHTFVKALTTDEKQAAWRFIRIDTACVCVLSRKATRRG
modifications: Beta-nerve growth factor

What was measured:
[1] = tested on: chick embryonic spinal motorneurons; assay: Survival of chick embryonic spinal motorneurons in culture; format: cell-based; parameters: key to Survival: −: not significantly different from control (survival: 8.3 ± 3.8%, mean ± SD, n = 18); ±: about 15-20% (statistically significant from each blank control, p < 0.01); + +: about 35-55%; + ++: about 55-75%; conditions: for Survival: after 3 days in culture, one concentration per molecule, Table VI, CNTF rat, rec.; for survival effect on motoneurons: supramaximal concentrations, NT-3 produced by transfected Cos-cells
Procedure: Motorneuron columns were dissected under a stereomicroscope from the lumbar part of the spinal cord of chick embryos on the 6th day of embryonic development and stored in cold calcium and magnesium-free Hanks balanced salt solution supplemented with glucose (4 g/l) (HBSS). The tissues were washed with HBSS and treated with 0.03% trypsin in HBSS at 37° C. for 20 min with gentle shaking, rinsed with cold HBSS and triturated mildly in 3 steps of 8-passage agitation in 1 ml of cold 0.1% soybean trypsin inhibitor (Sigma) in HBSS through a fire-polished siliconized Pasteur pipette. Each supernatant cell suspension was filtered through 50 μm-Nylon mesh, pooled and layered onto 4 ml of cold 6.8% metrizamide (Fluka) in HBSS-25 mM HEPES (pH7.4) in a 12 ml-siliconized conical glass tube. The tube was centrifuged at 400 g for 15 min at 4° C. and the intermediate layer (0.5 ml) was collected into another siliconized tube containing 6.5 ml of cold culture medium (a mixture of glucose (4 g/l)-supplemented Leibovitz's L-15 medium (Gibco), 0.15 M sodium bicarbonate, heat-inactivated and filtered horse serum and penicillin G (10^5 units/ml) at the ratio of 75:15:10:0.1, freshly prepared and buffered with 5% CO2.) After centrifugation at 100×g for 7 min at 4° C., the supernatant was removed and the cells were gently resuspended in culture medium and plated in Greiner 4-well culture dishes (well diameter, 10 mm; C. A. Greiner und Sohne GmbH, Nurtingen, West Germany) at 1000-2000 cells/well. The dishes had been precoated with poly-DL-ornithine (Sigma, 0.5 mg in 0.15 M sodium borate buffer (pH 8.3) overnight at 4° C., rinsed twice with phosphate-buffered saline (PBS) and subsequently coated with laminin (Gibco; 10 μg/ml in the serum-depleted culture medium) and placed in a 5% CO2-incubator until cell plating (5-6 hrs). Cells were incubated at 37° C. in a humidified 5% CO2- and 95% air-incubator. Samples were added one hr after plating and the culture medium changed after 24 hrs and 72 hrs. The initial cell numbers were counted 3 hrs after plating.
In some experiments motor neurons were retrogradely labeled with a fluorescent dye in vivo before cell preparation (U. Dohrman et al., 1986, Dev. Biol. 118:209-221) to identify the motor neuron cell population. A small hole was made in the shell of eggs which had been incubated for 5 days. Small pieces of rhodamine isothiocyanate crystals (Sigma) were inserted at two or three places into each hind limb thigh and the egg hole was sealed with a cellophane tape. The eggs were incubated for another 24 hrs. Some of the operated embryos were then processed for frozen sections after formaldehyde fixation. […] The other embryos were used for cell preparation using the method described above (18.1.1). After 5 hrs in culture cells were rinsed with warm HBSS, fixed with 4% formaldehyde in PBS at room temperature for 20 min, rinsed with PBS and then mounted in glycerol-PBS (1:1) with glass coverslips. Of the total cells approximately 83% were labeled and identified as motorneurons (FIG. 42.) Most of these labeled motorneurons were large cells and the rest were intermediate-size cells. No small cells were labeled. On the other hand, in experiments in which cells were not labeled with a fluorescent dye about 70% of the total cells were large phase-bright cells with round cell somas, about 20% were intermediate-size neurons (most of them may be motorneurons) and about 10% were small immature neurons (they have neuron-like processes with growth cones but have phase-dark semi-flat cell somas). Non-neuronal cells were either not present or accounted for less than 2%. Taken together, one may conclude that at least 83% of the cells are motorneurons while the remainder consists of non-labeled motorneurons, a small number of unidentified intermediate-size neurons and about 10% immature small neurons. […]

[2] = tested on: E8 chick ciliary ganglion neurons; assay: Survival of dissociated E8 chick ciliary ganglion neurons; format: cell-based
From the text: Ciliary neurotrophic factor activity may be evaluated using any CNTF-sensitive in vivo or in vitro system known in the art. For example, and not by way of limitation, in vitro systems have been developed which measure CNTF activity by quantitating 24-hour survival of embryonic (E8) chick ciliary ganglion (CG) neurons in monolayer cultures.
For example, ciliary ganglia may be collected from E8 chick embryos, dissociated (yielding approximately 20,000 cells per ganglion) and then diluted in HEBM medium containing 20 percent horse serum as described in Varon et al. (1979, Brain Res. 173:29-45). About fifty microliters of cell suspension containing neurons (2,000 cells) may then be seeded into microliter dishes and putative CNTF activity may be added. Culture plates may then be maintained at 37° C. in 5% CO2 for 24 hours, after which the cultures may be fixed by the addition of 200 μl 2 per cent glutaraldehyde in HEBM medium, and the number of surviving neurons may be determined visually by direct count under phase contrast microscopy.
Chick embryo ciliary ganglion cultures were created and maintained according to the method set forth in (Hughes et al., 1988, Nature 335 : 70-73).
(§1) Biological activity of recombinant CNTF was assayed on explants of chick embryo dorsal root ganglia (DRG) and dissociated cultures of ciliary ganglion (CG) neurons as described in Lindsay and Rohrer (1985, Devel. Biol 112:30-48). Briefly, DRG were dissected from chick embryos of 10 days incubation (E10) and 5-6 ganglia were explanted in 1 ml of a collagen gel matrix in 35 mm tissue culture dishes. After the gel had set, 1 ml of tissue culture growth medium F14 (Imperial Labs., U.K.) supplemented with 5% heat-inactivated horse serum (GIBCO) was added before adding human CNTF (1-20 l) to a final concentration of 100 pg to 100 ng/ml. CG were dissected from E8 chick embryos and incubated for 30 min in 0.25% trypsin (Worthington) in calcium- and magnesium-free phosphate buffered saline. The ganglia were then washed three times in F14 medium containing 5% horse serum before being dissociated to a single cell suspension by trituration through the bore of a Pasteur pipette. Enrichment for CG neurons was achieved by plating the cell suspension for 3.5 hr in a 60 mm dish, during which non-neuronal cells (fibroblasts and Schwann cells) attached firmly to the plastic while phase-bright neurons remained in suspension. The purified neurons were plated on polyornithine-laminin-coated 35 mm culture dishes at 8,000-10,000 neurons/dish. In explant cultures CNTF activity was determined by assessing the extent of fiber outgrowth in treated cultures compared to controls. Fiber outgrowth was scored on a scale of 0 to 5+, by comparing cultures to photographs of a dose-response of explanted DRG and NGF. In dissociated CG neuron cultures, CNTF activity was determined by counting at 48 hr the percentage of process-bearing neurons in control and CNTF-treated cultures. In all cases results were derived from triplicate cultures.

[3] = tested on: dorsal root ganglia and/or dissociated ciliary neurons; assay: Biological activity of modified and truncated CNTF proteins (rapid bacterial extracts); format: cell-based, chick; conditions: soluble protein extracted from induced bacteria hosting each plasmid; compared with full length parental protein
Procedure: Samples for gel electrophoresis were prepared by resuspending cell pellets from 0.5 ml culture OD590=2 in 0.16 ml lysis buffer (100 mM TrisHCl, 10% glycerol, 4% sodium dodecyl sulfate, 1 mM dithiothreitol, 0.5 mg/ml bromophenol blue, pH 6.8) and boiling for 5 minutes.
as §1
Biological activity was assayed on dorsal root ganglia and/or dissociated ciliary neurons was determined as described in section 12.1.6. Soluble protein was extracted from induced bacteria hosting each plasmid by the “rapid” protein extraction method described in section 12.1.3.

Row | Molecule | Survival [1] | survival effect on motoneurons [1] | lowest concentration at which activity was detectable ([2]; dissociated, neuron-enriched E8 chick ciliary ganglion cultures) [pg/mL] | EC50 ([2]; neuronal survival, E8 chick ciliary ganglion cultures) [ng/mL] | biological activity [3]
1 | B1 | − | no discernable effect |  |  | 
2 | B2 | − | did not appear to have a survival effect |  |  | 
3 | B3 |  |  | 5 | 0.08 | 
4 | B4 | − | no discernable effect |  |  | 
5 | B5 |  |  |  |  | as active as the full length protein
6 | B6 | − | no discernable effect |  |  | 
7 | B7 | − | no discernable effect |  |  | 
